Source: PMC7558026, “Exploring and applying the substrate promiscuity of a C-glycosyltransferase in the chemo-enzymatic synthesis of bioactive C-glycosides” (Nature Communications, 2020)

Columns and labels:
Format in all cases: biochemical, Aloe barbadensis
[1] = molecular target: T1, AbCGT (Aloe vera, UniProt A0A7G9P699); experiment: Kinetic parameters of AbCGT (wild type); conditions: acceptor varied, saturating UDP-Glc, pH 7.4, 30 °C
Method: (§1) The reactions terminated by the addition of 200 μL of ice-cold methanol. Subsequently, samples were centrifuged at 15,000 × g for 30 min to collect the supernatant, and aliquots were analyzed by HPLC as described above. All experiments were performed in triplicate. The value of Km was calculated with the method of Lineweaver–Burk plot.

[2] = molecular target: T1, AbCGT; experiment: Glycosyltransferase activity assay, purified AbCGT (wild type) with aglycon acceptors and UDP-Glc; conditions: aglycon acceptor with UDP-Glc, pH 7.4, 30 °C, up to 12 h; Reaction-1 to -3
[3] = substrate: O=C1C[C@@](O)(c2ccc(O)cc2)Oc2cc(O)cc(O)c21; experiment: Kinetic parameters of AbCGT (wild type); conditions: other: acceptor varied, UDP-Glc as donor, pH 7.4, 30 °C
Method: as §1

[4] = substrate: CC(=O)c1c(O)cc(O)cc1O; experiment: Kinetic parameters of AbCGT (wild type); conditions: other: acceptor varied, UDP-Glc as donor, pH 7.4, 30 °C
Method: as §1

[5] = substrate: O=C(CCc1ccc(O)cc1)c1c(O)cc(O)cc1O; experiment: Kinetic parameters of AbCGT (wild type); conditions: other: acceptor varied, UDP-Glc as donor, pH 7.4, 30 °C
Method: as §1

Kcat [1] [s⁻¹] | conversion rates, O,N,S-glycosylation [2] [%] | conversion rates, di-C-glycosylation [2] [%] | conversion rates, mono-C-glycosylation [2] [%] | Molecule | Km [3] [µM] | Km [4] [µM] | kcat [4] [s⁻¹] | Km [5] [µM] | kcat [5] [s⁻¹]
2.4 | 0 | 100 | 0 | CC(=O)c1c(O)cc(O)cc1O [Compound 11, phloracetophene] |  |  |  |  | 
 |  |  |  | AbCGT (Aloe vera) (protein) MSNSGRPHVALLPSAGMGHLTPFCRLAALLSSRGGGDLDVSFITAEPTVSLKEYLQIRDLLSSFPSIKSHRFKVPELSPSQFPSSPDPFFQQWESIRRCAHLLPPLLASATALIIDTASASAVLPVAKQLNIPAYILFTSSASMLSLVAHFPSHVISSTSPSAPLMSNILIPGLKHPVPAAWVPPPLHVPGHIFSTLTVDNGRCLPEADGVIINTFDALEPEVLAALNGGRVAHGLPRVFAVGPLVAPPPPQQMEETGGGDYPIAWLDRQRDKSVVYVSFGSRTAMSPEQIRELAAGLERSGCSFLWVIKTKKVDRDEEETDLGALLGEGYVERVKGRGLVVNGWVEQEEILRHRAVGGFVSHCGWNSVTEAAVAGVRVLCWPRMGDQRLNAEVVRRSGVGVWMEEWSWEAEGGVVGGEEIGRRVKEMMEDEGLRDSAERVAEEARVALGVGGTSSKEMEEFISRIMMGS | 414.5 ± 23.7 | 176.2 ± 11.7 | 2.4 ± 0.152 | 146.0 ± 10.2 | 2 ± 0.138
